Measurements published in patent US20240218071A1 (ANHUI BIOX VISION BIOLOGICAL TECHNOLOGY, published 2024).
Where a chain is given by its changes, count along the chain named. Like-named read-outs stand apart in the source and are kept apart here. Values belong to the binder of their own block, whether it stands above or below them.

Experiments:
[1] = target: T1, human CD40 expressed on the cell surface (human, UniProt P25942 21-277); experiment: flow cytometry on CHO-K-huCD40 cells, APC anti-human IgG Fc secondary antibody
T1 construct: whole, on cells; Used for transfected CHO-K cells, for transfected Jurkat reporter cells (Met1-Gln277) and for the natural CD40 on Ramos cells and iDC; also called CHO-K-huCD40 cells; CHO cells expressing CD40
T1 sequence (P25942 21-277): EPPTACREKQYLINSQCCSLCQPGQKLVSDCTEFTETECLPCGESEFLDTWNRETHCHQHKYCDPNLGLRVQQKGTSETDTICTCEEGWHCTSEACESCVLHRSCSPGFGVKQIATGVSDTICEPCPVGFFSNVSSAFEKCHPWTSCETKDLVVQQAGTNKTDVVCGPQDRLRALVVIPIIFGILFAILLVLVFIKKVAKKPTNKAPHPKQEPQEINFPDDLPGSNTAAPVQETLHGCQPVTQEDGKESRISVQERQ
Experimental: (§1) To confirm the binding activity and cross-reactivity of the full-length anti-CD40 antibody prepared in example 1.4 of the present invention to CD40, CHO-K-huCD40 cells or CHO-K-cynoCD40 cells were seeded into a 96-well plate at 1.0×10⁵ cells/well. 100 μL of diluted anti-CD40 candidate antibody prepared in example 1.4 was added to the 96-well plate. […] Then, the cells were washed, and the binding of the full-length anti-CD40 antibody to CD40 molecules expressed on the cell was detected by flow cytometry.

[2] = target: T2, P17-His protein (human CD40 antigen) (human, UniProt P25942 21-193, limits assumed); experiment: BLI (Fortebio Octet RED96), antibody on Protein A sensor, P17-His 5-40 nM
T2 construct: also called human CD40 antigen (P17-His)
T2 sequence (P25942 other isoform, or with tags, fused parts or gaps limits assumed): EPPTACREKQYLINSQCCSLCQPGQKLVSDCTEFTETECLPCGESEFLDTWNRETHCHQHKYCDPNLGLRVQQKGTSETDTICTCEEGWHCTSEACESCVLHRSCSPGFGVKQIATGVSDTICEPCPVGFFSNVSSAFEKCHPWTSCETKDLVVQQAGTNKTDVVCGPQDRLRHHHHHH
Experimental: In this example, the affinity of C8 parent antibody (C8-WT) and affinity variant antibody for human CD40 antigen (P17-His) was detected using an Fortebio Octet RED96 instrument.
Material preparation: 1 g of BSA and 500 μL of Tween 20 were added to 1000 mL of 1×PBS and mixed uniformly. The mixture was filtered, and then subpackaged and stored. 0.1 mL of glycine solution (0.1 M, pH 2.0) was pipetted, 0.9 mL of ultrapure water was added, and the mixture was mixed uniformly. The antibodies were diluted to 10 μg/mL with a KB buffer, and the antigens were diluted with a KB buffer to serial concentration gradients, i.e., 40 nM, 20 nM, 10 nM, 5 nM and 0 nM.
Experiment procedure: The sample plate (GreinierBio, PN655209) was tested after a sensor (Protein A sensor) was pre-wetted in the dark for at least 10 min, and after confirming the accuracy, the test was performed according to the preset programs. KB buffer was added at 200 μL/well to the wells of columns 1, 10 and 12 of sample plate 1; the glycine solution (0.01 M, pH 2.0) was added to the wells of column 11; the prepared sample solution was added to the wells of columns 2-8 (5 replicate wells for one sample); and P17-His was sequentially added to the wells of column 9 in a descending order of the concentration.

[3] = target: T1, human CD40 expressed on the cell surface; experiment: flow cytometry on CHO-K-huCD40 cells, APC anti-human IgG secondary antibody
Experimental: (§2) 100 μL of diluted anti-CD40 candidate antibody prepared in example 4.3 was added to the 96-well plate. After incubation at 4° C. for 30 min, the cells were washed 5 times with a FACS buffer (PBS+5% FBS+2% BSA), added with 100 μL of APC-labeled anti-human IgG secondary antibody, and then incubated at 4° C. for 30 min. The cells were then washed and tested by flow cytometry.

[4] = target: T1, human CD40 expressed on the cell surface; experiment: as above; remark: listed apart in the source
Experimental: as §2

[5] = target: T3, full-length mouse CD40 expressed on CHO-K cells (mouse, UniProt P27512 20-289); experiment: flow cytometry on CHO-K-mouseCD40 cells, FITC anti-human IgG Fc secondary antibody
T3 construct: whole, on cells; also called CHO-K-mouseCD40 cells; mouse CD40 antigen
T3 sequence (P27512 20-289): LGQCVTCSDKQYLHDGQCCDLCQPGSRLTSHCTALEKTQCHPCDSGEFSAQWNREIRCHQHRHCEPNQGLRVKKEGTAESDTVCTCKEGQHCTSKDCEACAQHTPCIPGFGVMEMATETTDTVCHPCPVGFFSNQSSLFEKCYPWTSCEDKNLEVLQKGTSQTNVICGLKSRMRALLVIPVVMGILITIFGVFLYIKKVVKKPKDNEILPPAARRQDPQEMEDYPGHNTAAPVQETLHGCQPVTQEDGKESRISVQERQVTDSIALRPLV
Experimental: The cross-reactivity of the affinity variant candidate antibody prepared in example 4.3 to mouse CD40 was tested using artificially constructed CHO-K cells expressing full-length mouse CD40 (Uniprot #P27512) (CHO-K-mouseCD40 cells). The CHO-K cells expressing mouse CD40 were seeded into a 96-well plate at 1.0×10⁵ cells/well. 100 μL of diluted affinity variant candidate antibody and the control antibody (APX005) were added to the 96-well plate, respectively. […] The cells were then washed and tested by flow cytometry.

[6] = target: T4, cynomolgus monkey CD40 expressed on the cell surface (cynomolgus monkey, UniProt G7PG38 21-278); experiment: flow cytometry on CHO-K-cynoCD40 cells, APC anti-human IgG Fc secondary antibody
T4 construct: also called CHO-K-cynoCD40 cells
T4 sequence (G7PG38 entry or part of it limits assumed): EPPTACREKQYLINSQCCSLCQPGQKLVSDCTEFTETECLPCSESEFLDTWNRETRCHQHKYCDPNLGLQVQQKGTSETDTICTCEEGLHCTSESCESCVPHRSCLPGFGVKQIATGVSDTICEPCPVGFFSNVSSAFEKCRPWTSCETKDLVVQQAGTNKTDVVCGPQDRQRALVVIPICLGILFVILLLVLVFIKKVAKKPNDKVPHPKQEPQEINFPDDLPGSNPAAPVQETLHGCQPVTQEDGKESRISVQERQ
Experimental: as §1

[7] = target: T3, full-length mouse CD40 expressed on …; experiment: flow cytometry on CHO-K-mouseCD40 cells, FITC anti-human IgG Fc secondary antibody; remark: listed apart in the source
Experimental: Similarly to example 1.3, CHO-K cells expressing full-length mouse CD40 (Uniprot: P27512) (hereinafter also referred to as “CHO-K-mouseCD40 cells”) were prepared. The cross-reactivity of the candidate C8 full-length anti-CD40 antibody prepared in example 1.4 to mouse CD40 was tested using the CHO-K-mouseCD40 cells. The CHO-K-mouseCD40 cells were seeded into a 96-well plate at 1.0×10⁵ cells/well. 100 μL of diluted anti-CD40 candidate antibody and two control antibodies (Dacetuzumab and APX005) were added to the 96-well plate, respectively. […] The cells were then washed and tested by flow cytometry.

[8] = target: T1, human CD40 expressed on the cell surface; experiment: cell-based or functional assay

- EC50 (read off the curve) [1]: ~0.8 µg/mL
B1: Dacetuzumab (antibody, V domains shown)
VH: EVQLVESGGGLVQPGGSLRLSCAASGYSFTGYYIHWVRQAPGKGLEWVARVIPNAGGTSYNQKFKGRFTLSVDNSKNTAYLQMNSLRAEDTAVYYCAREGIYWWGQGTLVTVSS
VL: DIQMTQSPSSLSASVGDRVTITCRSSQSLVHSNGNTFLHWYQQKPGKAPKLLIYTVSNRFSGVPSRFSGSGSGTDFTLTISSLQPEDFATYFCSQTTHVPWTFGQGTKVEIKR

- Kd [2]: 6.3 nM
- koff [2]: 0.0124 s⁻¹
- kon [2]: 1.98e+06 M⁻¹ s⁻¹
- EC50 (read off the curve) [3]: ~0.7 µg/mL
- EC50 (read off the curve) [4]: ~0.8 µg/mL
B2: APX005M (antibody, V domains shown)
VH: QVQLVESGGGVVQPGRSLRLSCAASGFSFSSTYVCWVRQAPGKGLEWIACIYTGDGTNYSASWAKGRFTISKDSSKNTVYLQMNSLRAEDTAVYFCARPDITYGFAINFWGPGTLVTVSS
VL: DIQMTQSPSSLSASVGDRVTIKCQASQSISSRLAWYQQKPGKPPKLLIYRASTLASGVPSRFSGSGSGTDFTLTISSLQPEDVATYYCQCTGYGISWPIGGGTKVEIK

- Kd [2]: 10.3 nM
- koff [2]: 0.011 s⁻¹
- kon [2]: 1.07e+06 M⁻¹ s⁻¹
- EC50 (read off the curve) [4]: ~0.7 µg/mL
- binding result [5]: binds
B3: C8-8 antibody (antibody, V domains shown)
VH: EVQLLESGGGLVRPGGSLRLSCAASGFTFGSYEMNWVRQAPGKGLEWVSYISSSGETTDYADSVKGRFTVSRDNSKNLLYLQMNSLRAEDTAVYYCARDVFFFDSSGPPGAYGMDVWGQGTMVTVSS
VL: DIQLTQSPSSLTASVGDRVTITCRSSQGIRSSLAWYQQKPGKPPKLLIYGASSLEGGVPSRFSGSGSGTDFTLTISSLQPEDFATYYCQQLNSFPSTFGQGTKLEIK

- Kd [2]: 19.3 nM
- koff [2]: 0.0164 s⁻¹
- kon [2]: 853000 M⁻¹ s⁻¹
- EC50 (read off the curve) [3]: ~0.8 µg/mL
- EC50 (read off the curve) [4]: ~0.9 µg/mL
- EC50 (read off the curve) [1]: ~0.8 µg/mL
- binding result [6]: binds
- binding result [7]: binds
B4: C8 clone anti-CD40 full-length antibody (antibody, human IgG1, kappa, V domains shown)
VH: B3 VH with P108D, P109N
VL: DIQLTQSPSSLTASVGDRVTITCRSSQGIRSSLAWYQQKPGKPPKLLIYGASSLEGGVPSRFSGSGSGTDFTLTISSLQPEDFATYYCQQLNSFPSTFGQGTKLEIKR
notes: also called C8-WT; C8 parent antibody

- Kd [2]: 12.4 nM
- koff [2]: 0.0111 s⁻¹
- kon [2]: 895000 M⁻¹ s⁻¹
- EC50 (read off the curve) [4]: ~0.9 µg/mL
- binding result [5]: binds
B5: C8-7 antibody (antibody, V domains shown)
VH: B3 VH with P108D, P109N, G110H
VL: B3 VL

- CD95 expression on Ramos cells without crosslinking agent (FACS) [8]: ~10 times weaker than APX005
- Kd [2]: 11.9 nM
- koff [2]: 0.0111 s⁻¹
- kon [2]: 932000 M⁻¹ s⁻¹
- EC50 (read off the curve) [3]: ~0.8 µg/mL
- binding result [5]: binds
B6: C8-2 antibody (antibody, V domains shown)
VH: B3 VH with D104S, S105P, P108D, P109N
VL: B3 VL

- Kd [2]: 5.34 nM
- koff [2]: 0.00725 s⁻¹
- kon [2]: 1.36e+06 M⁻¹ s⁻¹
- EC50 (read off the curve) [3]: ~0.8 µg/mL
- binding result [5]: no binding (tested: 20 µg/mL)
B7: C8-4 antibody (antibody, V domains shown)
VH: B3 VH with P109R
VL: B3 VL

- CD95 expression on Ramos cells without crosslinking agent (FACS) [8]: ~10 times weaker than APX005
- Kd [2]: 9.27 nM
- koff [2]: 0.0112 s⁻¹
- kon [2]: 1.21e+06 M⁻¹ s⁻¹
- EC50 (read off the curve) [4]: ~0.9 µg/mL
- binding result [5]: binds
B8: C8-9 antibody (antibody, V domains shown)
VH: B3 VH with G107R, P109N
VL: B3 VL

- Kd [2]: 12.7 nM
- koff [2]: 0.0148 s⁻¹
- kon [2]: 1.16e+06 M⁻¹ s⁻¹
- EC50 (read off the curve) [3]: ~0.8 µg/mL
- binding result [5]: binds
B9: C8-1 antibody (antibody, V domains shown)
VH: B3 VH with P108D, P109N
VL: B3 VL with N92A

- CD95 expression on Ramos cells without crosslinking agent (FACS) [8]: ~10 times weaker than APX005
- Kd [2]: 6.82 nM
- koff [2]: 0.00847 s⁻¹
- kon [2]: 1.24e+06 M⁻¹ s⁻¹
- EC50 (read off the curve) [4]: ~0.9 µg/mL
- binding result [5]: binds
B10: C8-10 antibody (antibody, V domains shown)
VH: B3 VH with P108F
VL: B3 VL

- CD95 expression on Ramos cells without crosslinking agent (FACS) [8]: ~10 times weaker than APX005
- Kd [2]: 9.04 nM
- koff [2]: 0.00984 s⁻¹
- kon [2]: 1.09e+06 M⁻¹ s⁻¹
- EC50 (read off the curve) [3]: ~0.8 µg/mL
- binding result [5]: binds
B11: C8-6 antibody (antibody, V domains shown)
VH: B3 VH with P108S
VL: B3 VL

- CD95 expression on Ramos cells without crosslinking agent (FACS) [8]: ~10 times weaker than APX005
- Kd [2]: 9.24 nM
- koff [2]: 0.0148 s⁻¹
- kon [2]: 1.6e+06 M⁻¹ s⁻¹
- EC50 (read off the curve) [4]: ~2 µg/mL
- binding result [5]: binds
B12: C8-11 antibody (antibody, V domains shown)
VH: B3 VH with F29P, S54A, P108D, P109N
VL: B3 VL with E55L

- Kd [2]: 4.51 nM
- koff [2]: 0.0111 s⁻¹
- kon [2]: 2.46e+06 M⁻¹ s⁻¹
- EC50 (read off the curve) [3]: ~0.8 µg/mL
- binding result [5]: no binding (tested: 20 µg/mL)
B13: C8-3 antibody (antibody, V domains shown)
VH: B3 VH with F29A, P108D, P109N
VL: B3 VL with G56V

- Kd [2]: 8.23 nM
- koff [2]: 0.00818 s⁻¹
- kon [2]: 994000 M⁻¹ s⁻¹
- EC50 (read off the curve) [3]: ~0.8 µg/mL
- binding result [5]: no binding (tested: 20 µg/mL)
B14: C8-5 antibody (antibody, V domains shown)
VH: B3 VH with N35D, G66P, P108D, P109N
VL: B3 VL with A51G
